Data: patent publication US10444224B2, “Method for RNA detection and quantification” (Cornell University, priority 2011, dated 2019)
Where “and” joins values, the source holds several entries; their conditions need not be identical. Equal entries are not always repeated. Entries after “also recorded” stand apart in the source; their conditions may differ.

How the values were obtained:
[1] = literature value used as reference; cited from earlier work
[2] = system: HEK293T cells expressing 5S-Spinach; assay: Live mammalian cell imaging of Spinach-tagged 5S RNA; assay type: cell-based, human
Description: HEK293 cells cultured on 24-well glass-bottom dishes were transfected with 0.2 μg of pAV-5S construct expressing full length human 5S RNA from its endogenous promoter fused through its 3′ end with either a control sequence (lambda fragment ˜400 nt) or the Spinach aptamer sequence using FuGene 6 (Roche) per manufacturer's instructions. Imaging experiments were performed 48 hours after transfection. Thirty minutes prior to experiment, HEK293 cell media was replaced with imaging media (DMEM with no phenol red or vitamins and supplemented with 25 mM HEPES, 5 mM MgSO4, and 10 μg/ml Hoechst 33342) and 20 μM DFHBI or vehicle were added to the cells to promote RNA-fluorophore complex formation. To induce stress granule formation, cells were treated with 100 mM MgSO4 or 600 mM sucrose for 30 minutes prior to imaging. Live fluorescence images of HEK293 cells were taken with a CoolSnap HQ2 CCD camera through a 100× oil objective mounted on a Nikon TE2000 microscope and analyzed with the NIS-Elements software. A filter cube typically used for fluorescein/EGFP with sputter coated excitation filter 470/40, dichroic mirror 495 (long pass), and emission filter 525/50 (Chroma Technology) was used to detect Spinach.

[3] = Tolerance of Spinach stem-loop 2 to mutation, assayed by DFHBI fluorescence; assay type: biochemical
Description: Secondary structure prediction was performed using Mfold online software. Mutated and truncated RNAs were created by ordering single stranded DNA templates (Integrated DNA Technologies) with the desired mutations or truncations and PCR amplifying these sequences to create double stranded DNA templates using primers which included a 5′ T7 promoter sequence. PCR products were then purified with PCR purification columns (Qiagen) and used as templates for in vitro T7 transcription reactions (Epicentre).
To determine if stem-loop 2 primarily has a structural role in Spinach, mutations were introduced at the stem-loop 2 positions shown in FIG. 11A to test the tolerance of Spinach to mutations at these positions. This was assayed by DFHBI fluorescence. In these experiments, the minimized Spinach structure (SEQ ID NO: 8) in which stem-loop 2 is predicted to sit adjacent to the large internal loop (FIG. 11A). […] To determine if stem-loop 2 can be swapped with a different stem-loop with similar stability without perturbing Spinach-induced DFHBI fluorescence, the UUCG loop sequence was replaced with GAAA and the 4-base pair stem was replaced with a different but still complementary 4-base pair stem (FIG. 11A, SEQ ID NO: 9). […] However, when mismatched bases were inserted in the stem region to prevent the formation of a duplex, DFHBI fluorescence was lost (FIG. 11B).

[4] = Spinach-based RNA sensor fluorescence in response to guanine; assay type: biochemical
[5] = Spinach-based RNA sensor fluorescence in response to SAM; assay type: biochemical
Description: Dose-response curves for each sensor in response to the target metabolite were determined by measuring the increase in fluorescence as a function of increasing target concentration in the presence of a fixed concentration of RNA sensor (10-50 nM) and a fixed concentration of fluorophore (10 μM). Curves were determined using a nonlinear regression analysis in Prism software and matched by least squares fitting to a standard dose-response model for 1:1 complexation.
The optimal sensors were chosen based on their low fluorescence in the absence of metabolite and the relative increase in fluorescence upon binding to the metabolite.

[6] = Sensor activation rate, SAM sensor; assay type: biochemical; settings: 1 mM SAM, 37° C.
Description: A solution of RNA sensor (1 μM) and DFHBI (10 μM) was incubated with continuous stirring at 37° C. in a buffer containing 40 mM HEPES pH 7.4, 125 mM KCl and 1 mM MgCl2. The target metabolite (1 mM) was then rapidly added to the stirring solutions and fluorescence emission was recorded over a 15 min period under continuous illumination at 37° C. using the following instrumental parameters: excitation wavelength, 460 nm; emission wavelength, 500 nm; increment of data point collection, 0.05 s; slit widths, 10 nm. The fluorescence increase was then plotted against exposure time and normalized to the maximum intensity of each fluorophore.

[7] = system: endogenous SAM levels in living E. coli cells; assay: Live cell imaging of SAM accumulation with the SAM sensor; assay type: cell-based; design: average increase in SAM levels upon treatment with methionine: dose or concentration left out as unconfirmed
Description: Expression of the SAM aptamer and intracellular imaging was performed as described above for the ADP sensor: BL21-A Star E. coli cells (Invitrogen) were transformed with 40 ng of plasmid DNA expressing the tRNA-sensor chimeras in pET28c under the control of a T7 promoter. Cells were plated, grown overnight and single colonies were picked for inoculation in LB-Kan. At OD600=0.4, 1 mM of IPTG was added to the culture and shaking was continued at 37° C. for more 2 hours. 100 μL of culture was then removed, spun down to pellet the culture, and resuspended in 2 mL of pH 6.0 M9 minimal media. A 200 μl aliquot of resuspended culture was then plated on PLL-coated 24-well glass-bottom dishes (MatTek) and incubated for 45 minutes at 37° C. Adherent cells were washed twice and then incubated with 200 μM DFHBI in pH 6.0 M9 minimal media for 2 hours at 37° C. Cells were then treated with methionine alone or methionine with inhibitors by adding 2 μl of a 100× stock of the compound to a final concentration of 50 μg/ml for L-methionine, 25 μM for adenosine periodate, and 2.5 μM for MT-DADMe-ImmA. Live fluorescence images were taken with a CoolSnap HQ2 CCD camera through a 60× oil objective mounted on a Nikon TE2000 microscope and analyzed with the NIS-Elements software. The filter set used was a sputter coated filter cube with excitation filter 470/40, dichroic mirror 495 (long pass) and emission filter 525/50 (Chroma Technology).
Cells transformed with SAM sensors were grown overnight in LB-Kan. Cultures were then diluted to OD600=0.1 in 200 mL LB-Kan and grown to OD600=0.4. Cells were then induced for 2 hours with 1 mM IPTG at 37° C. with constant shaking. The entire culture was centrifuged for 5 min at 1,000×g, pellets were resuspended and washed once with M9 media and then resuspended in […] of M9 media containing 200 μM DFHBI and divided into two samples. Methionine (50 μg/ml) or vehicle was then added to either sample and cultures were incubated between 32-37° C. 25 ml aliquots were removed from methionine- and vehicle-treated sample at each time point, centrifuged for 5 min at 1,000×g, and flash frozen in liquid nitrogen. Cells were thawed on ice and lysed by resuspending the pellet in 300 μl of cold 4% perchloric acid. Insoluble material was then pelleted by spinning at 1,000×g for 5 min and the supernatant was transferred to a dialysis spin column with a 10,000 molecular weight cut off (Amicon) and spun at 10,000×g for 10 min at 4° C. A portion of the flow through (50 μl) was then injected on a Zorbax C8 column (Agilent) on an Agilent 1100 HPLC. Samples were loaded and eluted for 15 min with an aqueous buffer containing 3.6% acetonitrile, 40 mM ammonium phosphate, and 5 mM sodium 1-heptanesulfonate which was brought to pH 5.0 with hydrochloric acid. After each sample was eluted, the column was washed with a gradient of 3.6-25% acetonitrile for 30 min prior to the next samples being injected. SAM standards were used to calibrate SAM levels measured using this assay.
Population analysis was carried out using NIS-Elements software. Individual cells in a captured field were manually traced as Region of Interests (ROIs) and tracked through the different time points of image capture. Fluorescence intensity was then calculated by dividing the total fluorescence by the area for each ROI, which gives the mean intensity per unit area. Fold increase in fluorescence over time is calculated as the ratio of mean intensity at a desired time point and at time zero. Values in fold increase in fluorescence over time are plotted as frequency distributions or further used in statistical analyses.

[8] = Excitation and emission spectra of the 24-2-DFHBI complex; assay type: physicochemical; settings: 24-2 bound to DFHBI
From the text: Unless otherwise stated, all chemistry reagents were purchased from Acros Organics and all cell culture reagents were purchased from Invitrogen. Commercially available starting reagents were used without further purification. DFHBI was synthesized as described in PCT Application Publ. No. WO/2010/096584 to Jaffrey and Paige; Paige and Jaffrey, “RNA Mimics of Green Fluorescent Protein,” Science 333(6042):642-646 (2011), each of which is hereby incorporated by reference in its entirety. Flash chromatography was conducted with 200-400 mesh silica gel 60 (EMD) and with ACS or HPLC grade solvents (Fisher). NMR spectra were recorded on a Bruker DMX-500 spectrometer at 500 MHz. Chemical shifts were reported as parts per million (ppm) downfield from an internal tetramethylsilane standard ([…] for ^1H NMR) or from solvent references. […] UPLC was performed at a flow rate of 0.5 ml/min (monitored with a PDA from 210-500 nm) using a Waters C18 column. Absorbance spectra were recorded with a Thermo Scientific NanoDrop 2000 spectrophotometer with cuvette capability. Fluorescence excitation and emission spectra were measured with a Perkin Elmer LS-55 fluorescence spectrometer.
After eight rounds of SELEX at pH 8.0 using DFHBI-agarose, clones were identified that switched on DFHBI fluorescence. […]

[9] = Magnesium dependence of 24-2-DFHBI fluorescence; assay type: biochemical
From the text: FIGS. 3A-C illustrate the secondary structures of three RNAs: the original 24-2 structure (3A, SEQ ID NO: 5), a minimized structure 24-2-min (3B, SEQ ID NO: 7), and a first generation derivative of 24-2, designated “Spinach” (3C, SEQ ID NO: 6). RNA structure is shown as predicted by Mfold web-based software (Zuker, “Mfold Web Server for Nucleic Acid Folding and Hybridization Prediction,” Nucl. Acids Res. 31(13): 3406-3415 (2003), which is hereby incorporated by reference in its entirety). In FIG. 3A, bases that could be removed without significant loss in fluorescence are indicated in purple, which includes several bases from the largest loop and largest stem. A-U, G-U and any mismatched base pairs were mutated to G-C base pairs and tested for their effect on 24-2 fluorescence. G-C mutations that reduced 24-2 fluorescence are indicated in red, those which had no effect are indicated by asterisk (*), and those which increased the fluorescence of 24-2 are indicated in green. Base substitutions indicated by an asterisk (*) helped to validate structural predictions because substituting one base pair for another (e.g. A-U for G-C) had negligible effect or increased fluorescence. […] FIG. 3D illustrates the magnesium dependence of 24-2-DFHBI fluorescence. The fluorescence of the 24-2-DFHBI complex was measured at pH 7.4 in the presence of increasing magnesium concentrations. […]

In the case of lucifer yellow, the “absolute quantum yield of reference fluorophore” value [1] is listed as 0.21.

For CCC(=C/[C@H](C)C/C=C/C(C)=C/[C@@H](C)C(=O)[C@@H](C)[C@H](O)[C@@H](C)C/C(C)=C/C(=O)O)/C=C/[C@@H]1OC(=O)C=C[C@@H]1C [leptomycin B], the “effect on 5S-Spinach localization” value ([2]; after washout of ML-60218) was 5S-Spinach accumulates in the nucleus.

In the case of Cc1c(-c2cc(NS(=O)(=O)c3ccccc3Cl)n(C)n2)sc2ccc(Cl)cc12 [ML-60218], the “effect on 5S-Spinach fluorescence” value ([2]; Pol III inhibitor treatment) is reported as “reduces 5S-Spinach fluorescence to baseline levels”.

For Cc1cc2cc3cc(C)c(N)cc3nc2cc1N [acridine yellow], the “absolute quantum yield of reference fluorophore” value [1] is given as 0.47.

B1: SEQ ID NO: 9: Spinach derivative with a replacement stem-loop at stem-loop 2 (nucleic acid)
chain: GACGCGACUGAAUGAAAUGGUGAAGGACGGGUCCAGGCACGAAAGUGCCUUGUUGAGUAGAGUGUGAGCUCCGUAACUAGUCGCGUC
modifications: listed as RNA, chemistry not given here
For B1, the “DFHBI fluorescence of stem-loop 2 variant relative to Spinach / original stem-loop 2” value [3] was “did not reduce DFHBI fluorescence; also recorded: nearly identical fluorescence intensities”.

B2: guanine sensor: Spinach-based turn-on RNA sensor for guanine (nucleic acid)
chain: GACGCGACUGAAUGAAAUGGUGAAGGACGGGUCCAGAUAAUCGCGUGGAUAUGGCACGCAAGUUUCUACCGGGCACCGUAAAUGUCCGACUCUUGUUGAGUAGAGUGUGAGCUCCGUAACUAGUCGCGUC
modifications: chemistry not given here
With B2 the “increase in fluorescence in the presence of guanine” value ([4]; 0.1 μM RNA, 10 μM DFHBI, 100 μM Gua, versus no guanine) was 32 fold and the EC50 ([4]; dose-response, 10 μM fluorophore, read-out: half-maximal fluorescence (EC50), guanine) was 1.5 µM.

B3: SAM sensor: Spinach-based turn-on RNA sensor for SAM, transducer stem 1 (nucleic acid)
chain: GACGCGACUGAAUGAAAUGGUGAAGGACGGGUCCACGAAAGGAUGGCGGAAACGCCAGAUGCCUUGUAACCGAAAGGGUUGUUGAGUAGAGUGUGAGCUCCGUAACUAGUCGCGUC
modifications: chemistry not given here
With B3 the “increase in fluorescence in the presence of SAM” value ([5]; 10 μM DFHBI, 1 mM SAM, versus no SAM) was 25 fold and 24 fold, the “molecular discrimination: fluorescence with methionine or adenosine” value ([5]; 1 mM) was “negligibly fluorescent; also recorded: negligible signal above background” and the “molecular discrimination: fluorescence with SAH” value ([5]; 1 mM SAH) was “only minimal fluorescence; also recorded: negligible signal”. For the same molecule, the EC50 ([5]; dose-response, 10 μM fluorophore, read-out: half-maximal fluorescence (EC50), SAM) was 120 µM, the “time to maximal fluorescence after SAM addition” value ([6]; 1 μM RNA sensor, 10 μM DFHBI) was no more than 10 min and the “time to increase in fluorescence after SAM addition” value [6] was “less than 10 s”. For the same molecule, the “average increase in sensor fluorescence in methionine-treated cells” value ([7]; 50 μg/ml methionine, 3 hr) was “over 6 fold” and the “average increase in SAM levels upon treatment with methionine” value ([7]; methionine, 180 min (FIG. 9D)) was “six-fold”.

B4: 24-2: RNA aptamer clone from SELEX that switches on DFHBI fluorescence (nucleic acid)
chain: GGGAGACGCAACUGAAUGAAAUGGUGAAGGACGGGUCCAGGUGUGGCUGCUUCGGCAGUGCAGCUUGUUGAGUAGAGUGUGAGCUCCGUAACUAGUCGCGUCAC
modifications: listed as RNA, chemistry not given here
notes: RNA aptamer clone from SELEX that switches on DFHBI fluorescence
For B4, the emission peak [8] was 501 nm, the excitation peak [8] was 469 nm and the “fraction of maximal fluorescence” value ([9]; 0.1 mM magnesium) was “greater than 50%”. For the same molecule, the “magnesium concentration at maximal fluorescence” value ([9]; pH 7.4) was 3 mM.
